Data reported in the supplement of paper PMC12855868.

B1: library; numbered along this chain (parent)
chain: MAAAGGARLLRAASAVLGGPAGRWLHHAGSRAGSSGLLRNRGPGGSAEASRSLSVSARARSSSEDKITVHFINRDGETLTTKGKVGDSLLDVVVENNLDIDGFGACEGTLACSTCHLIFEDHIYEKLDAITDEENDMLDLAYGLTDRSRLGCQICLTKSMDNMTVRVPETVADARQSIDVGKTS

Variants of: B1
Assay: scaled log2 fold change in cell abundance, elesclomol vs control (0 = silent mean, 1 = nonsense mean) (scaled log2 ratio); higher = higher viability under elesclomol (loss of FDX1 cuproptosis function)
Conditions: glucose 10 mM
Procedure: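 Deep mutational scan of full-length human FDX1: a pooled saturation-mutagenesis ORF library (every residue 2-184 mutated to all 19 amino acids plus stop, and silent codons where available) was expressed by lentivirus in FDX1-knockout ABC1 (14 days) or HEK293T (11 days) cells grown with elesclomol (ES) or DMSO control. Variant abundance came from ORF sequencing. The log2 fold change (ES vs control, mean of duplicates) was centred on the silent-variant mean (0) and scaled to the nonsense-variant mean (1). Higher values mean greater viability under ES, i.e. loss of FDX1 function in cuproptosis.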

[1] = with ABC1 FDX1 KO, elesclomol 5 nM, 14 days
[2] = with HEK293T FDX1 KO, elesclomol 40 nM, 11 days
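Note: variant abundance is its share of total variant reads in each endpoint sample, from next-generation sequencing of the integrated ORF PCR-amplified out of genomic DNA.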

Variant | scaled log2 fold change [1] | scaled log2 fold change [2]
V92D | 1.07 | 1.13
V92E | 0.961 | 0.463
V92F | 0.0178 | 0.0606
V92G | 0.459 | 0.237
V92H | 0.295 | 0.314
V92I | -0.0115 | 0.336
V92K | 0.913 | 0.724
V92L | 0.019 | 
V92M | -0.0956 | 0.391
V92N | 0.121 | 0.904
V92P | 0.511 | 0.131
V92Q | -1.03 | 0.183
V92R | 1.1 | 0.379
V92S | 0.501 | -0.213
V92T | -0.145 | 
V92W | 0.354 | -0.298
V92Y | 0.0368 | -0.087
V93A | -0.15 | 1.27
V93C | -0.0745 | 0.258
V93D | 0.877 | 0.496
V93E | 0.231 | -0.85
V93F | 0.266 | -0.377
V93G | 0.574 | -0.293
V93H | -0.124 | -0.875

Variant | scaled log2 fold change [1] | scaled log2 fold change [2]
V93I | 0.123 | -0.612
V93K | -0.498 | 
V93L | 0.0816 | 0.422
V93M | 0.416 | 0.244
V93N | 0.524 | 0.217
V93P | 0.924 | 0.209
V93Q | 0.0948 | -0.698
V93R | 0.275 | 0.16
V93S | 0.115 | -0.534
V93T | -0.217 | -0.372
V93W | 0.155 | 0.488
V93Y | -0.0809 | 1.12
V94A | 0.0221 | 0.0839
V94C | -0.491 | 0.199
V94D | -0.313 | 
V94E | 0.00926 | -0.058
V94F | -0.376 | -0.411
V94G | -0.377 | 
V94H | -0.328 | 0.317
V94I | -0.52 | 0.00216
V94K | -0.573 | -0.482
V94L | 0.0554 | -0.336
V94M | -0.224 | 1.17
V94N | -0.345 | -1.27

Variant | scaled log2 fold change [1] | scaled log2 fold change [2]
V94P | 0.617 | 0.378
V94Q | 0.235 | -0.226
V94R | -0.258 | 1
V94S | -0.223 | -1
V94T | -0.0231 | 
V94W | 0.0681 | 0.96
V94Y | -0.0972 | 0.515
E95A | 0.102 | -0.337
E95C | -0.0222 | 
E95D | 0.126 | 0.1
E95F | -0.339 | -0.0798
E95G | -0.0448 | 0.982
E95H | -0.106 | -0.636
E95I | 0.142 | -0.228
E95K | 0.0162 | -0.042
E95L | -0.168 | -0.709
E95M | 0.0861 | -0.356
E95N | 0.2 | 
E95P | 0.178 | -0.222
E95Q | 0.0772 | -0.398
E95R | -0.296 | -0.0027
E95S | 0.146 | 0.071
E95T | -0.37 | 
E95V | 0.0731 | -0.123

Variant | scaled log2 fold change [1] | scaled log2 fold change [2]
E95W | 0.0294 | -0.33
E95Y | -0.143 | -0.228
N96A | -0.307 | 1.03
N96C | -0.324 | -0.592
N96D | 0.104 | 0.22
N96E | 0.241 | -0.435
N96F | 0.145 | -0.464
N96G | 0.111 | 0.179
N96H | 0.245 | 
N96I | 0.329 | 0.221
N96K | -0.0525 | -0.121
N96L | 0.0905 | 0.033
N96M | 0.283 | -0.778
N96P | 0.423 | -0.187
N96Q | -0.22 | 0.0675
N96R | 0.204 | -0.0627
N96S | -0.155 | -0.272
N96T | -0.0877 | -0.163
N96V | 0.307 | 0.567
N96W | -0.0659 | -0.145
N96Y | -0.25 | -0.153
N97A | 0.142 | 0.975
N97C | -0.382 | -0.308
N97D | 0.0523 | -0.622

Variant | scaled log2 fold change [1] | scaled log2 fold change [2]
N97E | -0.211 | -1.28
N97F | 0.103 | -0.943
N97G | 0.132 | -0.242
N97H | -0.355 | -0.619
N97I | 0.125 | -0.93
N97K | 0.149 | 0.739
N97L | -0.931 | 
N97M | 0.195 | -0.11
N97P | -0.344 | -0.674
N97Q | -0.273 | 0.204
N97R | -0.00904 | 
N97S | -0.104 | 0.254
N97T | -0.0494 | 0.415
N97V | -0.176 | -0.221
N97W | 0.133 | -0.218
N97Y | -0.364 | -0.135
L98A | -0.194 | -1.06
L98C | -0.21 | -0.505
L98D | 0.341 | 0.871
L98E | 0.00205 | 0.172
L98F | -0.0232 | -0.902
L98G | 0.225 | 0.327
L98H | 0.186 | 0.86
